From PMC8028046
pKd: −log10 of the molar value.

What was measured:
[1] = biological target: amyloid-beta fibrils (Homo sapiens) (UniProt P05067); assay: SPR; conditions: cited from earlier work
[2] = biological target: Aβ42 fibrils (human) (UniProt P05067); assay: SPR; Aβ42 fibrils immobilized; BRICHOS at 0.391-12.5 μM; global heterogeneous ligand model with two binding sites; apparent constants
[3] = biological target: soluble Aβ42 aggregates of different sizes (human) (UniProt P05067); assay: FCCS; time course of aggregation of 5, 10 or 20 μM unlabeled Aβ42 with 100 nM HiLyteFluor488-Aβ42 and 483 nM proSP-C BRICHOS T187R (100 nM labeled with Atto655); auto- and cross-correlation curves analysed by MEMFCS and a two-component 3D diffusion model
Chain of soluble Aβ42 aggregates of different sizes (human) (P05067 671-713): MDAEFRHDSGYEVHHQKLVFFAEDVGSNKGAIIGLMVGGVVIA

Chain of Aβ42 fibrils (human) (P05067 671-713): as above
Chain of proSP-C BRICHOS WT (P11686 59-197): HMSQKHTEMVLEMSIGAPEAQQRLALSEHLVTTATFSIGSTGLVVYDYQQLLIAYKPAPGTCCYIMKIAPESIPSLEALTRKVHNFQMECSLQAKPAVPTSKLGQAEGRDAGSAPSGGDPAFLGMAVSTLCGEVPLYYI
Chain of amyloid-beta fibrils (Homo sapiens) (P05067 672-713): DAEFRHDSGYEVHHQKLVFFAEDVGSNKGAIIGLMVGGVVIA
Chain of proSP-C BRICHOS BRICHOS (P11686 91-197): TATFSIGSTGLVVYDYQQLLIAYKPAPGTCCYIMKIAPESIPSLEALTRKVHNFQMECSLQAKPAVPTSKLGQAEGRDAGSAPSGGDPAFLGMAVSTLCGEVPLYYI

Substance	pKd [1]	KD2 (binding site 2, apparent) [2]	ka2 (binding site 2) [2]	kd2 (binding site 2) [2]	stoichiometry N [3]
proSP-C BRICHOS BRICHOS (from UniProt P11686)	7.40				
proSP-C BRICHOS T187R (from UniProt P11686 59-197) (domain or fragment)		25 nM	6800 M^–1 s^–1	0.00017 s^–1	
proSP-C BRICHOS T187R-Atto655 (from UniProt P11686 59-197) (domain or fragment)					< 10
proSP-C BRICHOS WT (from UniProt P11686 59-197) (domain or fragment)		130 nM	1770 M^–1 s^–1	0.00023 s^–1	
